Reference: US20070249813A1
pKd: −log10 of the molar value.

What was measured:
[1] = biological target: biotinylated recombinant human TNFα (human) (UniProt P01375); experiment: SPR (BIAcore), [Ab] 200 nM over immobilized biotinylated rhTNFα
[2] = biological target: biotinylated recombinant human TNFα (human) (UniProt P01375); experiment: SPR (BIAcore), [Ab] 400 nM over immobilized biotinylated rhTNFα
[3] = biological target: biotinylated recombinant human TNFα (human) (UniProt P01375); experiment: SPR (BIAcore), [Ab] 6 nM over immobilized biotinylated rhTNFα
[4] = biological target: biotinylated recombinant human TNFα (human) (UniProt P01375); experiment: summary table of binding properties for hTNFα (assay not named there)
[5] = biological target: recombinant human TNFα (human) (UniProt P01375); experiment: cell-based or functional assay
Sequence of recombinant human TNFα (human) (P01375 77-233 limits assumed): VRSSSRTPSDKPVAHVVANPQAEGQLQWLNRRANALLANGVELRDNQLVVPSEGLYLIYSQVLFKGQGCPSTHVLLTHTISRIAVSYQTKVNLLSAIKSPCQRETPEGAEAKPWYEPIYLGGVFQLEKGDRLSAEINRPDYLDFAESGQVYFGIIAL

[6] = biological target: biotinylated recombinant human TNFα (human) (UniProt P01375); experiment: SPR (BIAcore), [Ab] 25 nM over immobilized biotinylated rhTNFα
[7] = biological target: biotinylated recombinant human TNFα (human) (UniProt P01375); experiment: SPR (BIAcore), [Ab] 3 nM over immobilized biotinylated rhTNFα
[8] = biological target: biotinylated recombinant human TNFα (human) (UniProt P01375); experiment: SPR (BIAcore), [Ab] 13 nM over immobilized biotinylated rhTNFα
[9] = biological target: biotinylated recombinant human TNFα (human) (UniProt P01375); experiment: SPR (BIAcore), [Ab] 50 nM over immobilized biotinylated rhTNFα
[10] = biological target: biotinylated recombinant human TNFα (human) (UniProt P01375); experiment: SPR (BIAcore), [Ab] 100 nM over immobilized biotinylated rhTNFα

Sequence of biotinylated recombinant human TNFα (human) (P01375 77-233 limits assumed): as above

Question: How did the Ab, bound, RUs [1] turn out when MAK 195 F(ab′)2 fragment (antibody) was run?
Answer: Its Ab, bound, RUs is 1080 RU.

Question: And the Ab, bound, RUs [2]?
Answer: Its Ab, bound, RUs is 881 RU.

Question: What about the Ab, bound, RUs [3] of the same substance?
Answer: The Ab, bound, RUs was 433 RU.

Question: What about the pKd [4] of the same substance?
Answer: Its pKd is 9.34.

Question: What about the Stoichiometry [4] of the same substance?
Answer: The Stoichiometry was 1.4.

Question: What about the IC50, neutralization of TNFα-induced L929 cytotoxicity [5] of the same substance?
Answer: Its IC50, neutralization of TNFα-induced L929 cytotoxicity is 62 pM.

Question: And the Ab, bound, RUs [6]?
Answer: Its Ab, bound, RUs is 957 RU.

Question: And the Ab, bound, RUs [7]?
Answer: Its Ab, bound, RUs is 231 RU.

Question: And the Ab, bound, RUs [8]?
Answer: Its Ab, bound, RUs is 708 RU.

Question: And the Ab, bound, RUs [9]?
Answer: Its Ab, bound, RUs is 1110 RU.

Question: And the Ab, bound, RUs [10]?
Answer: The Ab, bound, RUs was 1140 RU.
